Source: publication PMC6053543 (Nature cell biology, 2016)

T1: recombinant FL-Kank2 (mouse, UniProt Q8BX02 1-843)
T1 sequence (looked up): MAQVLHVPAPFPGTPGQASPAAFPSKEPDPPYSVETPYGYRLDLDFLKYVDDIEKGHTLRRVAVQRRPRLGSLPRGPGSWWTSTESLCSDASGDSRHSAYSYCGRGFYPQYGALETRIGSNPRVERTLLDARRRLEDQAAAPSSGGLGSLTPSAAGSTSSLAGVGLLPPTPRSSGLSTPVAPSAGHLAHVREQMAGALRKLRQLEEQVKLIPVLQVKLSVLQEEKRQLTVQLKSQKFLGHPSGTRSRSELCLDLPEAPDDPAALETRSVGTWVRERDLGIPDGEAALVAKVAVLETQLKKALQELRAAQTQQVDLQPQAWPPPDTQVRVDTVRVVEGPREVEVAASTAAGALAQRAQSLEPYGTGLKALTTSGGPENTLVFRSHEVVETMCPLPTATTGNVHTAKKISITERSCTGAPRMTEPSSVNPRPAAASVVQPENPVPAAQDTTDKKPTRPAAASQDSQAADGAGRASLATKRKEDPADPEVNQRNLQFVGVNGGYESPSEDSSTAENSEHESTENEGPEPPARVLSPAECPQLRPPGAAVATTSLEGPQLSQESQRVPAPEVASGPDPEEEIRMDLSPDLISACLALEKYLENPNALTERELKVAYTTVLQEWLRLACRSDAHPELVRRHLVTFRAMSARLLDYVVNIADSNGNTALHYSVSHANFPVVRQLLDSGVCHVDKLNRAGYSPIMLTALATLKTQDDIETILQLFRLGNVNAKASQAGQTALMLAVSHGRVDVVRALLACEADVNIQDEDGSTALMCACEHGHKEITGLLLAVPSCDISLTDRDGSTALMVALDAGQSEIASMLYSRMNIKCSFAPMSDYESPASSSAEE

B1: Venus-His-Sumo-tagged talin R4–R8 domain (domain or fragment, mouse, UniProt P26039 913-1655, looked up)
chain: LVQRLEHAAKQAAASATQTIAAAQHAASAPKASAGPQPLLVQSCKAVAEQIPLLVQGVRGSQAQPDSPSAQLALIAASQSFLQPGGKMVAAAKASVPTIQDQASAMQLSQCAKNLGTALAELRTAAQKAQEACGPLEMDSALSVVQNLEKDLQEIKAAARDGKLKPLPGETMEKCTQDLGNSTKAVSSAIAKLLGEIAQGNENYAGIAARDVAGGLRSLAQAARGVAALTSDPAVQAIVLDTASDVLDKASSLIEEAKKASGHPGDPESQQRLAQVAKAVTQALNRCVSCLPGQRDVDNALRAVGDASKRLLSDSLPPSTGTFQEAQSRLNEAAAGLNQAATELVQASRGTPQDLARASGRFGQDFSTFLEAGVEMAGQAPSQEDRAQVVSNLKGISMSSSKLLLAAKALSTDPASPNLKSQLAAAARAVTDSINQLITMCTQQAPGQKECDNALRQLETVRELLENPVQPINDMSYFGCLDSVMENSKVLGEAMTGISQNAKNGNLPEFGDAIATASKALCGFTEAAAQAAYLVGVSDPNSQAGQQGLVEPTQFARANQAIQMACQSLGEPGCTQAQVLSAATIVAKHTSALCNSCRLASARTANPTAKRQFVQSAKEVANSTANLVKTIKALDGDFTEENRAQCRAATAPLLEAVDNLSAFASNPEFSSVPAQISPEGRAAMEPIVISAKTMLESAGGLIQTARALAVNPRDPPRWSVLAGHSRTVSDSIKKLITSMRDKA

Columns and labels:
recombinant FL-Kank2 = target: T1, recombinant FL-Kank2; test: pull-down
[1] = target: B1; test: pull-down

Binder	binding result (recombinant FL-Kank2)	binding result [1]
B1	binds	–
DPPYSVETPYGYRLDLDFLKYVDDIEKGHTLRRVAVQRRPRLGS (domain or fragment, mouse, UniProt Q8BX02 29-72, looked up) [GST-tagged Kank2-KN (amino acids 29–72)]	–	binds
